We go through 2 molecules from paper PMC11467860.

Holding throughout (experiment): EMSA
(In general: Mobility shift assays separate free from complexed probe on a gel.)

Series [1] deals with T1, Dicer S839F (Homo sapiens, UniProt Q9UPY3 1-1922, S839F).
For the next series, the target named is Dicer S839A (Homo sapiens, UniProt Q9UPY3 1-1922, S839A).
For series [2], the target named is T1, Dicer S839F. This is another data set of the same source.

Read-outs that look alike come from different tables or passages of the source.

T1 sequence (Q9UPY3 whole entry S839F): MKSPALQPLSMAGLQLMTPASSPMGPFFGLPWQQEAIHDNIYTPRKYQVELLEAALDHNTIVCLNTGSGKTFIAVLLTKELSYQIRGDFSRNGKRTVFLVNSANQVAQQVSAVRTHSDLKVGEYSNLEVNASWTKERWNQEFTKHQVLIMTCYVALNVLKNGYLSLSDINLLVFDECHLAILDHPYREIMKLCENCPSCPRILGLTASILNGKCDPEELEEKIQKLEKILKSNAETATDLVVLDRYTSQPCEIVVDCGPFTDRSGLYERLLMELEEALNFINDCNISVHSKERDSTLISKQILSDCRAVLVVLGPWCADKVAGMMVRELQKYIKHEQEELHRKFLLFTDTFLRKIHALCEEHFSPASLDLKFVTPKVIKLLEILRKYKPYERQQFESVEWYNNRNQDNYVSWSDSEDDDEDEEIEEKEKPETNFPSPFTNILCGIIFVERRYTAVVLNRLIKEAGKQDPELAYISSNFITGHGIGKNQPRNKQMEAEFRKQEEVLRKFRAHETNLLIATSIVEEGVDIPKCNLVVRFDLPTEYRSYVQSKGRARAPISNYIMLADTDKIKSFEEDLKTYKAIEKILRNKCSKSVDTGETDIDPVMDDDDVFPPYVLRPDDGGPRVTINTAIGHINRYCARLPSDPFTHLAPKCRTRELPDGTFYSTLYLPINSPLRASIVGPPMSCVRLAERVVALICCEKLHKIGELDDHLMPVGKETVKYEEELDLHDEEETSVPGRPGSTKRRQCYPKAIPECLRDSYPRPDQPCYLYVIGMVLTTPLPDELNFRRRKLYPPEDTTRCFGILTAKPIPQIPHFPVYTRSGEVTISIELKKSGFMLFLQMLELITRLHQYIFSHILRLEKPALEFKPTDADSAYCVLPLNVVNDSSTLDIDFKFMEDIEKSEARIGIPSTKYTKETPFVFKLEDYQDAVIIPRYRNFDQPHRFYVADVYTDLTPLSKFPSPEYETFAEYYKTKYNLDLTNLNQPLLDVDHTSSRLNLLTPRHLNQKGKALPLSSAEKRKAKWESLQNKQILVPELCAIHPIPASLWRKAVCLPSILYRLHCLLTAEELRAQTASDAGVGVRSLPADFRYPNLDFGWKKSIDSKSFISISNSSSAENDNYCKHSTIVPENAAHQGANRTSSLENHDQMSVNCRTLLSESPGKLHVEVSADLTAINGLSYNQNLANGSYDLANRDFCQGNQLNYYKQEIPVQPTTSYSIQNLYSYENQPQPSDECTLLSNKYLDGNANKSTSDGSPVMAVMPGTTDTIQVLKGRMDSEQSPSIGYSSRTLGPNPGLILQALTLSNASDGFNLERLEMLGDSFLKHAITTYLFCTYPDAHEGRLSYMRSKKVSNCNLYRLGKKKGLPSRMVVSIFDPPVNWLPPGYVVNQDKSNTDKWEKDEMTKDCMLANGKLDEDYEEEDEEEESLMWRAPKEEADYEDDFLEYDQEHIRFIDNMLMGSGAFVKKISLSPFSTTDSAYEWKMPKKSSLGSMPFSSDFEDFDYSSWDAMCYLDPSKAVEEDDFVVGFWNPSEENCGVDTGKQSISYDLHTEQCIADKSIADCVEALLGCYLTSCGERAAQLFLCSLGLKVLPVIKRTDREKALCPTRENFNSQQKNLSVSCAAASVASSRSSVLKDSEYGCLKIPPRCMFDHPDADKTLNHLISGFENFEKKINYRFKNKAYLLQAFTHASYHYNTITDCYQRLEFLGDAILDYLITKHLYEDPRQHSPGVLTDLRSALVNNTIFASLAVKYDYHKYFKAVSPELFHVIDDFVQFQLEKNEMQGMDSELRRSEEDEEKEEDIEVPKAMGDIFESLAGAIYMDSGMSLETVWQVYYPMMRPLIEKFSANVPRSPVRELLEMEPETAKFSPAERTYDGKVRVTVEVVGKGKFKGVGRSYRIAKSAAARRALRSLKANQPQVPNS
Dicer S839A, sequence (Q9UPY3 whole entry S839A): as the sequence (Q9UPY3 whole entry S839F) above, with F839A counted along it

B1: pre-miR-21 (structured_RNA)
RNA: UAGCUUAUCAGACUGAUGUUGACUGUUGAAUCUCAUGGCAACACCAGUCGAUGGGCUGUC
modifications: 5' phosphate
For the molecule B1, the figures for the binding result in the series with Dicer S839F [1] and with Dicer S839A were “no binding” and “binds”, respectively.

B2: snord37 (structured_RNA)
RNA: AUUCGUGAUGACUGAUCAUUUCUUCACUUUGACCAGAUGUCUACUGAAGAAAGCCUGCGUCUGAGG
Turning to B2, the binding result with Dicer S839F [2] is “binds”.
